Measurements published in patent US20190233539A1.

Columns and labels:
Assay in all cases: BIAcore SPR, koff against wild-type Fc
[1] = molecular target: CD32B (FcγRII-B) (UniProt P31994)
[2] = molecular target: CD32A^H (UniProt P12318)
[3] = molecular target: CD16A with Val at position 158 (human) (UniProt P08637)
[4] = molecular target: CD16A with Phe at position 158 (human) (UniProt P08637)
Chain of CD16A with Phe at position 158 (human) (P08637 17-208 limits assumed): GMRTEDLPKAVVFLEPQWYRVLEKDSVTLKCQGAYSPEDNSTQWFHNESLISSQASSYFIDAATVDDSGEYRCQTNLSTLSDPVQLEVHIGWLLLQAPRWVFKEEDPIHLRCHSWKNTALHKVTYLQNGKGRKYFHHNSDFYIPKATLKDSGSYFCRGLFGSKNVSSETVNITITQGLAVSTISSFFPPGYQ

Chain of CD16A with Val at position 158 (human) (P08637 17-208 F176V limits assumed): as the sequence (P08637 17-208 limits assumed) above, with F160V counted along it
Chain of CD32B (FcγRII-B) (P31994 43-217 limits assumed): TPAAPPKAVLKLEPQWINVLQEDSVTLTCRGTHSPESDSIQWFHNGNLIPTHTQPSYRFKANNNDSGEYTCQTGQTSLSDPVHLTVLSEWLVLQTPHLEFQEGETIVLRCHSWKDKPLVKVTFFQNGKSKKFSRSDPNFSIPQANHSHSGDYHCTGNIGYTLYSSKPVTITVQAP
Chain of CD32A^H (P12318 34-217 limits assumed): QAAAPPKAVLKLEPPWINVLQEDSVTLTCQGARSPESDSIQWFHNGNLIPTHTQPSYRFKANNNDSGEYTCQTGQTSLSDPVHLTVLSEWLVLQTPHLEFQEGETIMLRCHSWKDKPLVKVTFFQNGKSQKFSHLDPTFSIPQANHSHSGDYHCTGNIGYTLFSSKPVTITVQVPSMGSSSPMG

WT koff/mutant koff [1]	WT koff/mutant koff [2]	WT koff/mutant koff [3]	WT koff/mutant koff [4]	Substance
0.3	0.4	0.6	1.2	Fc mutant 7 (A330V)
1.6	1.5	–	–	Fc mutant 9 (F243L, P396L)
0.2	0.5	4	–	Fc mutant 10 (F243L, R292P)
0.4	1.4	6.3	–	Fc mutant 14 (F243L, R292P, P396L)
0.9	1.5	1.9	1.9	Fc mutant 15 (R292P, V305I, P396L)
0.4	0.8	4	2.3	Fc mutant 17 (F243L, R292P, V305I, P396L)

More lines, now with the values behind:

Substance	WT koff/mutant koff [1]	WT koff/mutant koff [2]	WT koff/mutant koff [3]	WT koff/mutant koff [4]
Fc mutant 1 (F243L)	0.8	0.6	4.8	–
Fc mutant 2 (D270E)	0.4	2.2	1.3	–
Fc mutant 3 (R292P)	0.3	0.7	2.4	1.6
Fc mutant 4 (S298N)	0.2	–	–	–
Fc mutant 5 (Y300L)	1.2	2.9	–	1.2
Fc mutant 6 (V305I)	1.2	1.3	0.9	0.6
Fc mutant 8 (P396L)	2.6	1.6	1.3	–
Fc mutant 11 (R292P, V305I)	0.4	0.8	–	–
Fc mutant 12 (F243L, R292P, Y300L)	0.6	1	7.4	4.6
Fc mutant 13 (F243L, R292P, V305I)	0.1	0.2	2.6	1.4
Fc mutant 16 (F243L, R292P, Y300L, P396L)	1.1	1.7	10.1	5.6
Fc mutant 18 (F243L, R292P, Y300L, V305I, P396L)	1.4	3.2	10.1	8.3
